Reference: article PMC11742450, “Engineering a membrane protein chaperone to ameliorate the proteotoxicity of mutant huntingtin” (Nature Communications, 2025)

Biological target: T1, His6-hsPEX19-WT (human, UniProt P40855 1-299)
T1 construct: human PEX19 (hsPEX19); the human PEX19 gene cloned into pET-33b; Made in E. coli, so probably not farnesylated (surmise); also called human PEX19; His6-PEX19; source: E. coli BL21 Star (DE3), purified (Ni-NTA)
T1 sequence (looked up): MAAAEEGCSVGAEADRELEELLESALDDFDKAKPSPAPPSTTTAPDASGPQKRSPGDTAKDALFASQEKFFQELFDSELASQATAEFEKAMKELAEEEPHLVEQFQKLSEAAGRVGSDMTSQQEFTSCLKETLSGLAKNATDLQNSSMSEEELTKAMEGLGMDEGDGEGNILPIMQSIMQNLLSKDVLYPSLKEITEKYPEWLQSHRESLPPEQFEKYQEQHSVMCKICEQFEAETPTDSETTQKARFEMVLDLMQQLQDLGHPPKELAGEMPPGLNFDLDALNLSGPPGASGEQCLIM
Experiment: pull-down; His6-PEX19 pulldown with PEX26; input, flowthrough and elution analysed by Western blot with Strep (PEX26) and PEX19 antibodies; hsPEX19 at about 3-fold the endogenous concentration
Settings: both partners purified

- binding result: binds
B1: 2 × Strep-SUMO-PEX26 (237-305aa) (domain or fragment, UniProt Q7Z412 237-305, looked up)
chain: RQLWDSAVSHFFSLPFKKSLLAALILCLLVVRFDPASPSSLHFLYKLAQLFRWIRKAAFSRLYQLRIRD
